Residue numbers refer to the chain shown, from its start. Names and notes keep the numbering of the source.
B1: extracellular domain of ZIP4 from Pteropus alecto (black fruit bat), wild type (domain or fragment)
chain: SGQGALDRVALGGLLNTLAARVHCTSGPCGKCLSVDDLLALGRPEEPGHLARLSAAAALYLSDPEGTCEDIRAGRWASRADHLLALLEGPKALAPGLSRLLQRIQAQTTGQPSAGEACVDPPQLLREAGVAGAPGSPGPVLATLLEHVGRGSCFHTLPTPQYFVDFVFQQSHGNTPNISVAELAALMQRLGVGGVTETHSDHHHQEKRVNRQGPTPLTAPNSSSDTWDTVCLSARDVMAVYGLSEQTGVTPEAWAQLSPALLQQQLSGACSPQPSHPAQNQLSQAEK
B2: pZIP4-ECD C64R variant (domain or fragment)
chain: B1 chain with C29R
B3: pZIP4-ECD R87C variant (domain or fragment)
chain: B1 chain with R52C
B4: pZIP4-ECD A91T variant (domain or fragment)
chain: B1 chain with A56T
B5: pZIP4-ECD Q299H variant (domain or fragment)
chain: B1 chain with Q264H
B6: pZIP4-ECD P193L variant (domain or fragment)
chain: B1 chain with P158L

Target: the molecule itself
Test: SEC

Protein	stoichiometry N
B1	2
B2	2
B3	2
B4	2
B5	2
B6	2

From paper doi:10.1101/2020.08.16.253294 (bioRxiv, 2020)
